Experimental data taken from PMC9374335, “C11orf94/Frey is a key regulator for male fertility by controlling Izumo1 complex assembly” (Science Advances, 2022).

Molecular target: T1, Izumo1-3xFLAG (mouse, UniProt Q9D9J7 22-397)
T1 construct: Izumo sperm-egg fusion protein 1, mouse; open reading frame amplified from murine testis cDNA; source: HEK293T, transfected, in lysate (CHAPSO); not shown: 3xFLAG, C-terminal, kept
T1 sequence (looked up): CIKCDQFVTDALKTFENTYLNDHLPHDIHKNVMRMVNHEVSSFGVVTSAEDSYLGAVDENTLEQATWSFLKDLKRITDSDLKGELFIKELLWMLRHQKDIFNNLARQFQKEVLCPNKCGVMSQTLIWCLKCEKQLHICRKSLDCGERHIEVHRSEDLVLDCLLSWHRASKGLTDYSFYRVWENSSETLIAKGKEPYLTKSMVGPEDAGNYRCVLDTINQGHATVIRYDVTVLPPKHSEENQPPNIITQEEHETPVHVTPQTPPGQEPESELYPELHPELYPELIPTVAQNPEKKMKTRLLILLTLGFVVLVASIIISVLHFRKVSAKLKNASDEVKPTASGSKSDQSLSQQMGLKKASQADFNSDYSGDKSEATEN
Experiment: co-IP; CHAPSO lysates of transfected HEK293T cells; 3xFLAG-tagged bait precipitated with anti-FLAG beads; with or without coexpressed C11orf94-3xmyc; Western blot
Conditions: partners not purified

B1: murine ACE3 equipped with a C-terminal HA-tag (natural protein, mouse, UniProt D0G895 24-737, looked up)
chain: VGETSLNDFYSEAQAKLFLQFYEQTAQVVLNEFMEATWNYVTNITKQNQKNMLQKEADRSQFMLYFSTRARMFRTDHFLNQDVKRMLRKLQNIDKSALPTEDLLEYNRLLTYMETAYNRAEVCLDEGPCLTLEPDLQEIMATSRDQKELLWAWQGWRDAVGRQLRPVFEDYVRLSNKAAQYNGYKDMGALWRSKYESDTLEEDLEQLYKELQPLYLNLHAYVRRSLYRYYGPELIDLRGPIPAHLLGNMWAQSWNNILDLVLPYPTKAPEDITAIMKIQHWRPEKMFEEANLFFTSMGMLPAPPAFWIKSMMEKPADGREVECHTSSWNFYKFNDFRVKKCTEVTLEDLLSVFHQMGHIQYFLQYQNLSVIYQEGASPAFEEAVGSVIALSVSSHKYLLARGLLSQPHQDSEEEVNFLLGIALEKIAFIPFSYLVDKFRWKIFDGTISKITYNQEWWNFRLKYQGLCPPVPRSDDDFDPGAKFHIPANVPYIRYFLGLILQFQLHEALCEASGHVGPLHQCDNYNSKVAGKILGDLLKLGSSRPWREVLQEVTGESNISTKAFLTYFKPLMDWLVTENVKQGDTLGWPDFSCSFEEKITSKVSFLGTDTEPEQAYLGQWVLLSMSFFMLVLILALGFRLHYLEKQLLDEDTMILKTLPYSYFLGIAMEPHQAARKQWLLLGLCCILMLCCIGLLIRIVTQNTENTPWMKNEGQS
notes: Angiotensin-converting enzyme 3 (ACE3), mouse; open reading frame amplified from murine testis cDNA; also called ACE3-HA; angiotensin-converting enzyme 3; source: HEK293T, transiently transfected, in lysate (CHAPSO); not shown: HA, C-terminal, kept
fold change of the co-precipitation in the presence of C11orf94-3xmyc against its absence: ~1.7 fold
